# Data published in patent publication US20200071687.
# Columns and labels:
# RNase A, P61823 = target: T1, RNase A, P61823
# T1 chain: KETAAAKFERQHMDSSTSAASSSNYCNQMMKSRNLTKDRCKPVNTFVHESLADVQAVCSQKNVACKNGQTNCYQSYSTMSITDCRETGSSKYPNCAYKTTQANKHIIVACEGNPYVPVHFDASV
Protein,"digestion of Ase I, 1 hour at 37° C. (SDS-PAGE, Coomassie) (restriction enzyme Ase I)","degradation of RNaseA, 1 hour at 37° C. (SDS-PAGE, Coomassie) (RNase A, P61823)","digestion of the substrate protein in the presence of detergents (SDS-PAGE, Coomassie) (catalase)","digestion of the substrate protein in the presence of detergents (SDS-PAGE, Coomassie) (RNase A, P61823)"
proteinase K (protein) AAQTNAPWGLARISSTSPGTSTYYYDESAGQGSCVYVIDTGIEASHPEFEGRAQMVKTYYYSSRDGNGHGTHCAGTVGSRTYGVAKKTQLFGVKVLDDNGSGQYSTIIAGMDFVASDKNNRNCPKGVVASLSLGGGYSSSVNSAAARLQSSGVMVAVAAGNNNADARNYSPASEPSVCTVGASDRYDRRSSFSNYGSVLDIFGPGTSILSTWIGGSTRSISGTSMATPHVAGLAAYLMTLGKTTAASACRYIADTANKGDLSNIPFGTVNLLAYNNYQA,while Proteinase K cannot,both the subtilisin B24 variant and proteinase K can degrade RNaseA,,
Subtilisin Carlsberg variant B24 (protein) AQTVPYGIPLIKADKVQAQGFKNVKVAVLDTGIQASHPDLNVVGGASFVAGEAYNTDGNGHGTHVAGTVAALGNTTGVLGVAPSVSLYAVKVLNSSGSGSYSGIVSGIEWATTNGMDVINMSLGGASGSTAMKQAVDNAYAKGVVVVAAGNSGSSGNTNTIGYPAKYDSVIAVGAVDSNSNRASFSSVGAELEVMAPGAGYSTYPTNTYATLNGTSMASPHVAGAAALIMSKHPNLSASQVRNRLSSTATYLGSSFYYGKGLINVEAAAPHHHHH,subtilisin B24 variant can digest Ase I in one hour at 37 °C,both the subtilisin B24 variant and proteinase K can degrade RNaseA,can digest catalase (FIG. 11A) and RNAase (FIG. 11B) up to at least a 2.0% SDS concentration; catalase (FIG. 11C) and RNAase (FIG. 11D) up to at least a 2.0% Triton X-100 concentration,can digest catalase (FIG. 11A) and RNAase (FIG. 11B) up to at least a 2.0% SDS concentration; catalase (FIG. 11C) and RNAase (FIG. 11D) up to at least a 2.0% Triton X-100 concentration; and RNAase (FIG. 11E) up to at least a 2% CTAB concentration
